{"source": "paper PMC5594205", "about": "(Molecular Cell, 2017)", "binders": {"B1": {"name": "recombinant human Rad51 (natural protein, UniProt Q06609 1-339, looked up)", "chain": "MAMQMQLEANADTSVEEESFGPQPISRLEQCGINANDVKKLEEAGFHTVEAVAYAPKKELINIKGISEAKADKILAEAAKLVPMGFTTATEFHQRRSEIIQITTGSKELDKLLQGGIETGSITEMFGEFRTGKTQICHTLAVTCQLPIDRGGGEGKAMYIDTEGTFRPERLLAVAERYGLSGSDVLDNVAYARAFNTDHQTQLLYQASAMMVESRYALLIVDSATALYRTDYSGRGELSARQMHLARFLRMLLRLADEFGVAVVITNQVVAQVDGAAMFAADPKKPIGGNIIAHASTTRLYLRKGRGETRICKIYDSPCLPEAEAMFAINADGVGDAKD"}}, "assay_in_all_cases": "pull-down", "key": {"[1]": {"target": "recombinant human Pol α-primase complex (full-length) (human, UniProt P09884 1-1462; Q14181 1-598; P49642 1-420; P49643 1-509)", "sequence (Q14181 whole entry, chain 2 of 3)": "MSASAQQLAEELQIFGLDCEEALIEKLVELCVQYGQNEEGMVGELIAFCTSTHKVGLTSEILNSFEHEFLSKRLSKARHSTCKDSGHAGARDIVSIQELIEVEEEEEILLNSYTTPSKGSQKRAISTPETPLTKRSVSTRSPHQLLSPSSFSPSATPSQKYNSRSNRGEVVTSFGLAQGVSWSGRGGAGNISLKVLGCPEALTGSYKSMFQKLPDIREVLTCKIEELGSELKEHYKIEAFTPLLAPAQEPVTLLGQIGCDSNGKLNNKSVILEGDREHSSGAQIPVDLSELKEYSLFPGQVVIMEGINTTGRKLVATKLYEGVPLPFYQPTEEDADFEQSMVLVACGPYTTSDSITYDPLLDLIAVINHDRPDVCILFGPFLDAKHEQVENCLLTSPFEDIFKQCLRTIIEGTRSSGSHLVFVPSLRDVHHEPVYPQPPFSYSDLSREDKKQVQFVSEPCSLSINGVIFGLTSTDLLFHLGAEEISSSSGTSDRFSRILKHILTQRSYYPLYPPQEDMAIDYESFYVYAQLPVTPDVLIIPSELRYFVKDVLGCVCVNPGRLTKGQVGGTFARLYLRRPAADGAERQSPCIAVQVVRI", "sequence (P49642 whole entry, chain 3 of 3)": "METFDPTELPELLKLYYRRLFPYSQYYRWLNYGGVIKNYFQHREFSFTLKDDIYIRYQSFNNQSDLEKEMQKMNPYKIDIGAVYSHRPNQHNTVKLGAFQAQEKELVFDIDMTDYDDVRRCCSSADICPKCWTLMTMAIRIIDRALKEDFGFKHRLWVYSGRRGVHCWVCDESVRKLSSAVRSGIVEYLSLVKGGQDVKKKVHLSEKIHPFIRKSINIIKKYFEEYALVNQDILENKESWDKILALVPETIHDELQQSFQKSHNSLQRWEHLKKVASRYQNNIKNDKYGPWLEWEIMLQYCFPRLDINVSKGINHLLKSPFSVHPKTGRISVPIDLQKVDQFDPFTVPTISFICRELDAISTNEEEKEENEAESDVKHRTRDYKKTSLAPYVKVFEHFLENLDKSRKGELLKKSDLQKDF", "sequence (P49643 whole entry, chain 4 of 3)": "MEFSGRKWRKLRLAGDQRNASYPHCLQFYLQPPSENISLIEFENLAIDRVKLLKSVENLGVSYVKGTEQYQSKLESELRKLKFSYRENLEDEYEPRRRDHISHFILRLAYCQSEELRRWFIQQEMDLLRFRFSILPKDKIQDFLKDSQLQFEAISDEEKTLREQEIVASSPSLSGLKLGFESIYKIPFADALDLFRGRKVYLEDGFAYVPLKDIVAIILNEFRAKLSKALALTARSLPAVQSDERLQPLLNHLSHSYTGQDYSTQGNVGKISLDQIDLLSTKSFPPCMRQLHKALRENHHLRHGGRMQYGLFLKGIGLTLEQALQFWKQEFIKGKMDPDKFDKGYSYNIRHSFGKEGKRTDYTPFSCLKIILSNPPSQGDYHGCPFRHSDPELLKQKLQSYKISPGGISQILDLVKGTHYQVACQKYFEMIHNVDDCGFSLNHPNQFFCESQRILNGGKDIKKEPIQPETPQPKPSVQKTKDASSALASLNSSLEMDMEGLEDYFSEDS"}, "recombinant human Rad51 [2]": {"target": "B1"}, "recombinant human Rad51 [3]": {"target": "B1", "remark": "listed apart in the source"}}, "note": "Like-named read-outs stand apart in the source and are kept apart here."}
{"binder": "B1", "values": [{"measurement": "binding result", "setting": "[1]", "value": "binds"}]}
{"binder": "His6-MBP-Polymerase α (1-109) (domain or fragment, human, UniProt P09884 1-109, looked up) MAPVHGDDSLSDSGSFVSSRARREKKSKKGRQEALERLKKAKAGEKYKYEVEDFTGVYEEVDEEQYSKLVQARQDDDWIVDDDGIGYVEDGREIFDDDLEDDALDADEK", "values": [{"measurement": "binding result", "setting": "recombinant human Rad51 [2]", "value": "binds"}]}
{"binder": "LLGFHTASGKKVKIAKESLDKVKNLFDE", "note": "[Brca2 BRC4 peptide]", "values": [{"measurement": "binding result", "setting": "recombinant human Rad51 [3]", "value": "binds"}]}
